Test results from patent US20130243743A1 (ACCELERON PHARMA, published 2013).
Read-outs that look alike come from different tables or passages of the source.

T1: Growth and Differentiation Factor-11 (GDF11) (UniProt O95390 299-407)
T1 sequence (looked up): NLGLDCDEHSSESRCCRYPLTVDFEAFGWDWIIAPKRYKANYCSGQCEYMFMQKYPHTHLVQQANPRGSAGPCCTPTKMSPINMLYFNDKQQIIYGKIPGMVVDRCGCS

T2: Activin A (UniProt P08476 311-426)
T2 sequence (looked up): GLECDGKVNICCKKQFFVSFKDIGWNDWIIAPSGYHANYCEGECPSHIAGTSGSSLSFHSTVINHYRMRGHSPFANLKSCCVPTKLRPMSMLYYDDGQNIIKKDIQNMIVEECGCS


How the values were obtained:
[1] = target: T1, Growth and Differentiation Factor-11 …; test: cell-based or functional assay
Activin A [2] = target: T2, Activin A; test: cell-based or functional assay
[3] = target: T1, Growth and Differentiation Factor-11 …; test: Biacore SPR; ligand coupled to the device, receptor flowed (table reproduced from WO2006/012627); +15tail variant; ligand coupled to the device, receptor flowed over it (data from WO2006/012627)
Activin A [4] = target: T2, Activin A; test: as above

| IC50, inhibition of ligand signalling, A-204 reporter gene assay (conditioned media) [1] [mg/L] | IC50, inhibition of ligand signalling, A-204 reporter gene assay (conditioned media) (Activin A [2]) [mg/L] | Kd [3] [µM] | Kd (Activin A [4]) [µM] | IC50, inhibition of ligand signalling, A-204 reporter gene assay (conditioned media) ([1]; record 2) [mg/L] | IC50, inhibition of ligand signalling, A-204 reporter gene assay (conditioned media) (Activin A [2]; record 2) [mg/L] | Binder |
| --- | --- | --- | --- | --- | --- | --- |
| 0.071 | 0.1 | – | – | – | – | ActRIIB(22-131)-hFc (Fc fusion, not shown: a dimerising Fc or GST) GEAETRECIYYNANWELERTNQSGLERCEGEQDKRLHCYASWRNSSGTIELVKKGCWLDDFNCYDRQECVATEENPQVYFCCCEGNFCNERFTHLPEAGGPEVTYEPPPT |
| 0.121 | 0.325 | – | – | – | – | ActRIIB(21-131)-hFc (Fc fusion, not shown: a dimerising Fc or GST) RGEAETRECIYYNANWELERTNQSGLERCEGEQDKRLHCYASWRNSSGTIELVKKGCWLDDFNCYDRQECVATEENPQVYFCCCEGNFCNERFTHLPEAGGPEVTYEPPPT |
| 0.045 | 0.022 | – | – | – | – | ActRIIB(20-134)-hFc (Fc fusion, not shown: a dimerising Fc or GST) GRGEAETRECIYYNANWELERTNQSGLERCEGEQDKRLHCYASWRNSSGTIELVKKGCWLDDFNCYDRQECVATEENPQVYFCCCEGNFCNERFTHLPEAGGPEVTYEPPPTAPT |
| – | – | 0.019 | ~0.026 | – | – | Soluble ActRIIB-Fc +15tail (Fc fusion, not shown: linker and Fc) GRGEAETRECIYYNANWELERTNQSGLERCEGEQDKRLHCYASWANSSGTIELVKKGCWLDDFNCYDRQECVATEENPQVYFCCCEGNFCNERFTHLPEAGGPEVTYEPPPTAPT |
| 0.06 | 0.043 | – | – | – | – | ActRIIB(23-131)-hFc (Fc fusion, not shown: a dimerising Fc or GST) EAETRECIYYNANWELERTNQSGLERCEGEQDKRLHCYASWRNSSGTIELVKKGCWLDDFNCYDRQECVATEENPQVYFCCCEGNFCNERFTHLPEAGGPEVTYEPPPT |
| 0.13 | 0.158 | – | – | – | – | ActRIIB(20-128)-hFc (Fc fusion, not shown: a dimerising Fc or GST) GRGEAETRECIYYNANWELERTNQSGLERCEGEQDKRLHCYASWRNSSGTIELVKKGCWLDDFNCYDRQECVATEENPQVYFCCCEGNFCNERFTHLPEAGGPEVTYEP |
| 0.087 | 0.032 | – | – | – | – | ActRIIB(20-132)-hFc (Fc fusion, not shown: a dimerising Fc or GST) GRGEAETRECIYYNANWELERTNQSGLERCEGEQDKRLHCYASWRNSSGTIELVKKGCWLDDFNCYDRQECVATEENPQVYFCCCEGNFCNERFTHLPEAGGPEVTYEPPPTA |
| 0.069 | 0.105 | – | – | – | – | ActRIIB(24-131)-hFc (Fc fusion, not shown: a dimerising Fc or GST) AETRECIYYNANWELERTNQSGLERCEGEQDKRLHCYASWRNSSGTIELVKKGCWLDDFNCYDRQECVATEENPQVYFCCCEGNFCNERFTHLPEAGGPEVTYEPPPT |
| 0.183 | 0.201 | – | – | 0.12 | 0.044 | ActRIIB(20-131)-hFc (Fc fusion, not shown: a dimerising Fc or GST) GRGEAETRECIYYNANWELERTNQSGLERCEGEQDKRLHCYASWRNSSGTIELVKKGCWLDDFNCYDRQECVATEENPQVYFCCCEGNFCNERFTHLPEAGGPEVTYEPPPT |
